# Data published in patent publication US5910570A, “Cloned DNA encoding a UDP-GalNAc: polypeptide N-acetylgalactosaminy-ltransferase” (Pharmacia & Upjohn Company, priority 1997, dated 1999).
# Where “and” joins values, the source holds several entries; their conditions need not be identical. Identical values can stand only once.
# B1: cloned soluble GalNAc-transferase (GalNAcTs) (Bos taurus) (protein)
# chain: LEPVQKPHEGPGEMGKPVVIPKEDQEKMKEMFKINQFNLMASEMIALNRSLPDVRLEGCKTKVYPDNLPTTSVVIVFHNEAWSTLLRTVHSVINRSPRHMLEEIVLVDDASERDFLKRPLESYVKKLKVPVHVIRMEQRSGLIRARLKGAAVSKGQVITFLDAHCECTVGWLEPLLARIKHDRKTVVCPIIDVISDDTFEYMAGSDMTYGGFNWKLNFRWYPVPQREMDRRKGDRTLPVRTPTMAGGLFSIDRDYFQEIGTYDAGMDIWGGENLEISFRIWQCGGTLEIVTCSHVGHVFRKATPYTFPGGTGQIINKNNRRLAEVWMDEFKNFFYIISPGVTKVDYGDISSRLGLRHKLQCRPFSWYLENIYPDSQIPRHYFSLGEIRNVETNQCLDNMARKENEKVGIFNCHGMGGNQVFSYTANKEIRTDDLCLDVSKLNGPVTMLKCHHLKGNQLWEYDPVKLTLQHVNSNQCLDKATDEDSQVPSIRDCSGSRSQQWLLRNVTLPEIF
# notes: The plasmid pAC373-GalNAcT (Homa et al., 1993) which contains the full length GalNAc-transferase gene; honeybee melittin signal peptide (21 aa) (N, cleaved yes); made in house; host or cells: Sf9 cells / baculovirus, purified from serum-free culture medium on apomucin-Sepharose
# B2: bovine colostrum GalNAc-transferase (Bos taurus) (protein)
# chain: GLPAGDVLEPVQKPHEGPGEMGKPVVIPKEDQEKMKEMFKINQFNLMASEMIALNRSLPDVRLEGCKTKVYPDNLPTTSVVIVFHNEAWSTLLRTVHSVINRSPRHMLEEIVLVDDASERDFLKRPLESYVKKLKVPVHVIRMEQRSGLIRARLKGAAVSKGQVITFLDAHCECTVGWLEPLLARIKHDRKTVVCPIIDVISDDTFEYMAGSDMTYGGFNWKLNFRWYPVPQREMDRRKGDRTLPVRTPTMAGGLFSIDRDYFQEIGTYDAGMDIWGGENLEISFRIWQCGGTLEIVTCSHVGHVFRKATPYTFPGGTGQIINKNNRRLAEVWMDEFKNFFYIISPGVTKVDYGDISSRLGLRHKLQCRPFSWYLENIYPDSQIPRHYFSLGEIRNVETNQCLDNMARKENEKVGIFNCHGMGGNQVFSYTANKEIRTDDLCLDVSKLNGPVTMLKCHHLKGNQLWEYDPVKLTLQHVNSNQCLDKATDEDSQVPSIRDCSGSRSQQWLLRNVTLPEIF
# notes: from tissue; host or cells: bovine colostrum
# Columns and labels:
# Type in all cases: biochemical, bovine
# [1] = substrate: CC(C)C[C@H](NC(=O)[C@@H]1CCCN1C(=O)[C@H](C)NC(=O)[C@H](C)NC(=O)[C@H](CO)NC(=O)[C@H](C)NC(=O)[C@H](C)NC(=O)[C@H](CC(=O)O)NC(=O)[C@@H]1CCCN1C(=O)[C@@H]1CCCN1)C(=O)N[C@@H](CCCNC(=N)N)C(=O)O; assay: Kinetic parameters with the cloned soluble GalNAc-transferase (Bond Elut assay); conditions: other: GalNAcTs; double reciprocal plots
# [2] = substrate: C[C@H](NC(=O)[C@@H]1CCCN1C(=O)[C@@H]1CCCN1)C(=O)N[C@@H](CO)C(=O)N[C@H](C(=O)N[C@@H](CO)C(=O)N[C@@H](C)C(=O)N1CCC[C@H]1C(=O)NCC(=O)O)[C@@H](C)O; assay: as above; conditions: other: GalNAcTs; double reciprocal plots
# [3] = substrate: C[C@H](NC(=O)[C@@H]1CCCN1C(=O)[C@@H]1CCCN1)C(=O)N[C@H](CO)C(=O)N[C@H](C(=O)N[C@H](CO)C(=O)N[C@@H](C)C(=O)N1CCC[C@H]1C(=O)NCC(=O)O)[C@@H](C)O; assay: Determination of kinetic parameters for acceptor peptides (Dowex-2 assay); conditions: other: calculated assuming that S0 << Km; pH 7.2
# Protocol: (§1) The transfer of N-acetylgalactosamine to peptide acceptors is assayed by two different assays. The concentration of UDP-GalNAc is saturating in all assays; a Km of 8 μM is reported for bovine colostrum GalNAc-transferase (Elhammer and Kornfeld, 1986). For the determination of kinetic parameters the reaction mixture contains 50 mM Imidazole, pH 7.2, 10 mM MnCl2, 0.5% Triton X-100, 150 μM UDP-GalNAc, approximately 120,000 cpm of UDP-[1-^3 H]-GalNAc, varying concentrations of acceptor (see individual experiments) and approximately 5 mU of enzyme in a final volume of 40 μl; standard incubation time is 20 minutes. The reaction is terminated by placing the samples in a boiling water bath for 1.5 minutes. The reaction product (glycosylated peptide) is separated from unreacted UDP-GalNAc by chromatography on Dowex-2 columns (0.5 ml bed volume) equilibrated in water; the run-through fraction (2.5 ml) containing the glycosylated peptide is collected, supplemented with scintillation fluid and counted for radioactivity. For the determination of the low levels of transfer to serine, the assay conditions are as follows: 50 mM Imidazole, pH 7.2, 10 mM MnCl2, 0.5% Triton X-100, 150 μM UDP-GalNAc, approximately 260,000 cpm UDP-[^3 H]-GalNAc and 3.2 mM acceptor peptide (the concentration of RSPPP is 3.7 mM). The assays are incubated for 20 minutes ([…]) [SEQ ID NO:14] or 8 hours ([…] [SEQ ID NO:15], PPAdSSdSAPG and RSPPP [SEQ ID NO:13]). Following incubation, the enzyme is inactivated by placing the samples on a boiling water bath for 1.5 minutes. The samples are then allowed to cool and the reaction products are separated from unreacted UDP-GalNAc and free GalNAc by chromatography on a Biogel P-2 column (1×50 cm) equilibrated in 7% isopropanol; thirty 1.3 ml fractions are collected.
# (§2) Assays were carried out as described in Materials and Methods.
# (§3) Assay time was 20 minutes.
# (§4) The values are given as means ± S.E. (n = 3)
# [4] = substrate: N=C(N)NCCC[C@H](N)C(=O)N[C@@H](CO)C(=O)N1CCC[C@H]1C(=O)N1CCC[C@H]1C(=O)N1CCC[C@H]1C(=O)O; assay: as above; conditions: other: calculated assuming that S0 << Km; pH 7.2
# Protocol: as §1, §2, §3, §4
# [5] = substrate: C[C@@H](O)[C@H](NC(=O)[C@@H](N)CCCNC(=N)N)C(=O)N1CCC[C@H]1C(=O)N1CCC[C@H]1C(=O)N1CCC[C@H]1C(=O)O; assay: as above; conditions: other: acceptor peptide; 150 μM UDP-GalNAc, 20 minutes; means ± S.E. (n = 3); pH 7.2
# Protocol: as §1, §2, §3, §4
# [6] = substrate: C[C@H](NC(=O)[C@@H]1CCCN1C(=O)[C@@H]1CCCN1)C(=O)N[C@@H](CO)C(=O)N[C@@H](CO)C(=O)N[C@@H](CO)C(=O)N[C@@H](C)C(=O)N1CCC[C@H]1C(=O)NCC(=O)O; assay: as above; conditions: other: calculated assuming that S0 << Km; pH 7.2
# Protocol: as §1, §2, §3, §4
# [7] = substrate: C[C@H](NC(=O)[C@@H]1CCCN1C(=O)[C@@H]1CCCN1)C(=O)N[C@@H](CO)C(=O)N[C@H](C(=O)N[C@@H](CO)C(=O)N[C@@H](C)C(=O)N1CCC[C@H]1C(=O)NCC(=O)O)[C@@H](C)O; assay: as above; conditions: other: acceptor peptide; 150 μM UDP-GalNAc, 20 minutes; means ± S.E. (n = 3); pH 7.2
# Protocol: as §1, §2, §3, §4
protein,measurement,setting,value
B1,Km,[1],3.6 mM and 3.5 mM
same,Km,[2],6.5 mM
B2,kcat/Km,[3],1.2 M⁻¹ s⁻¹
same,kcat/Km,[4],0.4 M⁻¹ s⁻¹
same,Km,[5],3.3 mM
same,kcat,[5],0.604 ± 0.083 s⁻¹
same,kcat/Km,[5],183 M⁻¹ s⁻¹
same,kcat/Km,[6],8.5 M⁻¹ s⁻¹
same,Km,[7],6 mM
same,kcat,[7],1.81 ± 0.357 s⁻¹
same,kcat/Km,[7],301 M⁻¹ s⁻¹
